Experimental data reported in patent US20230067757A1 (NOVAROCK BIOTHERAPEUTICS, published 2023).
Substitutions are numbered along the chain they refer to.

B1: Hu-7 (antibody, V domains shown)
VH: EVQLLESGGGLVQPGGSLRLSCAASGFTFSSYVMSWVRQAPGKGLEWVSTISGSGGSTYYADSVKDRFTISRDNSKNTLYLQMNSLRAEDTAVYYCGKPLLGGTGLWDYWGQGTLVTVSS
VL: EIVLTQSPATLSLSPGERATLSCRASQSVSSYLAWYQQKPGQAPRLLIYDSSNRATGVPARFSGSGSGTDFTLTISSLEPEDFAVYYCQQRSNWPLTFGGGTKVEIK
B2: Hu-2 (antibody, V domains shown)
VH: QLRLQESGPGLVKPSETLSLTCAVSGGSISSSRSYWGWIRQPPGKGLELIGSIYYSGSTYYNPSLKSRVTISVDTSKNQFSLKLTSVTATDTAVYYCARQTLRYFDWLSPFDYWGQGTLVTVSS
VL: EIVMTQSPATLSLSPGERATLSCRASQSVRSNYLSWYQQKPGQAPRLLIYGTSTRATGIPARFSGSGSGTDFTLTISSLQPEDFAVYFCQQDYNLPITFGQGTRLEIK
B3: Hu-6 (antibody, V domains shown)
VH: QMQLRESGPGLVKPSETLSLTCTVSNGPISSSRYYWGWIRQPPGKGLEWIGSFHYSGSTYYKPSLKSRVTISADTSKNQLSLELSSVTAADTAVYYCARLVLRYFDWLGYFDLWGRGTLVTVSS
VL: B2 VL with I2F, V29I, T52A, G58A, F88Y
B4: Hu-10 (antibody, V domains shown)
VH: EVQLSESGGALVQPGESLRLSCAASGFTFSSYAMTWVRQAPGKGLEWVSSLSGSGRSTYYAASIKGRFTISRDNSKNTLYLQMSSLRAEDTAIYYCAKSLSYYHYYFDYWGQGTLVTVSS
VL: DIQLTQSPSFLSASVGDRVPITCRASQDISNYLAWYQQKPGKAPKLLIYSASTLQSGVPSRFSGSGSGTEFTLTISSLQPEDFASYHCQQVKTYPLTFGGGTKVEIK
B5: Hu-9 (antibody, V domains shown)
VH: B4 VH with S5L, A10G, E16G, Y32F, I64M, S84N, S119T
VL: B4 VL with D28G, Y32F, K45E, Y49H, S77N, E81Q, S85T, H87Y, K92N, T93S
B6: Hu-12 (antibody, V domains shown)
VH: EVRLLESGGGLVQPGGSLRLSCIASGFTFSSYVMSWVRQAPGKGLEWVSGISGSGGSTYYADSVKGRFTISRDNSKNTLYLQISSLRAEDTAVYYCTKAPTLWWFFDLWGRGTLVTVSS
VL: DIQVTQSPSFLSASVGDRVTITCRASQGIRSYLAWYQQKPGKAPKLLIYAASTLQSGVPSRFSGSGSGTEFTLTISSLLPEDFATYYCQQLNSYPLTFGGGTKVEIK
B7: Ms2 (antibody, V domains shown)
VH: QVQLKESGPGLVAPSQSLSITCTVSGFSLTSYGVHWVRQPPGKGLEWLGVIWAGGSTNYNSALMSRLSISKDNSKSQVFLKMNSLQTDDTAMYYCARDFTTATGFDYWGQGTTLTVSS
VL: DIVMTQSPSSLSVSAGEKVTMSCKSSQSLLNSGNQKNYLAWYQQKPGQPPKLLIYGASTRESGVPDRFTGSGSGTDFTLTISSVQAEDLAVYYCQNDHSYPFTFGSGTKLEIK
B8: Ms11 (antibody, V domains shown)
VH: QVQLQQSGAELVKPGASVKMSCKAFGYTFTTYSIEWMKQNHGKSLEWIGNFRPYNDDTKCNEKFKGKAKLTVEKSSSTVYLELSRLTSDDSAVYYCARGSYGNSFAYWGQGTLVTVSA
VL: B7 VL
B9: Ms4 (antibody, V domains shown)
VH: EVQLQQSGPELEKPGASVKISCKASGYSFTGYNMNWVKQSNGKSLEWIGNIDPYYGGTRYNQKFKGKATLTVDRSSSTAYMQLKSLTSEDSAVYYCARLGLGNAMDYWGQGTSVTVSS
VL: B7 VL with S10F, S12T, S14T, N37S, A40T, G56W, H98Y, S99Y, K109E
B10: Ms14 (antibody, V domains shown)
VH: EVQLQQSGPELVKPGASVKMSCKASGYTFTRYIIHWVKQKPGQGLEWIGYFNPYNDDSKNNEKFKGKATLTSDKSSSTAYMEISSLTSEDSAVYYCAKLRQERIAYWGQGTLVTVSA
VL: DIQMNQSPSSLSASLGDTITITCHVSQNIDVWLSWYQQKPGNIPKLLIYKASNLHTGVPSRFSGSGSGTGFTLTISSLQPEDIATYYCQQGQSYPLTFGAGTKLELK
B11: Ms16 (antibody, V domains shown)
VH: QVQLQQSGAELVRPGTSVKVSCKASGYAFTNYLIEWIKQRPGQGLEWIGVINPGSGGTNYNEKLKGKATLTADKSSSTAYMQLSSLTSGDSAVYFCARYVKGNALDYWGQGTSVTVSS
VL: DIVMTQSPSSLTVTAGEKVTLSCKSSQSLFNSGNQKNYLTWYQQKPGQPPKLLIYWASTRESGVPDRFTGSGSGTDFTLTISSVQAEDLAIYYCQNSYSFPLTFGAGTKLELT
B12: Hu-17 (antibody, V domains shown)
VH: QVQLVQSGAEVKRPGASVKVSCRVSGYTLTALSMYWVRQAPGKGLEWMGGFDPEDGETIYAQKFQGRVTMTEDTSTGTAYMELSSLKSEDTAVYYCATRLRYFDWNYWGQGTPVTVSS
VL: DIVMTQTPLSSPVTLGQPASISCRSSQSLVHSDGNTYLSWLQQRPGQPPRLLIYKVSKRFSGVPDRFSGSGAGTDFTLKISRVEAEDVGVYYCTQGTQFPRTFGQGTKVEIK
notes: Human V regions (Trianni mice)

molecular target: human claudin 18 isoform 2 (claudin 18.2) (human); test: cell-based or functional assay

Binder	ADCC EC50, CHO-18.2 target cells (mouse FcγRIV reporter bioluminescence) [nM]
B1	3.52
B2	3.51
B3	4.8
B4	1.25
B5	1.1
B6	2.26

molecular target: human claudin 18 isoform 2 (claudin 18.2) (human); test: cell-based or functional assay; remark: another data set of the same source

Binder	endocytosis derived cell toxicity EC50, CHO-18.2 cells (anti-IgG Fc-MMAF co-internalization) [nM]
B7	2.55
B8	1.3
B9	0.98
B10	1.02
B11	1

molecular target: human claudin 18 isoform 2 (claudin 18.2) (human); test: cell-based or functional assay; remark: another data set of the same source

Binder	endocytosis derived cell toxicity EC50, CHO-18.2 cells (anti-IgG Fc-MMAF co-internalization) [nM]
B1	1.65
B2	1.43
B3	1.69
B4	0.85
B5	0.85
B6	2.01

molecular target: T1, human claudin 18 isoform 1 (claudin 18.1) (human, UniProt P56856 1-261); test: imaging, CHO-CLDN18.1 cells, dose titration
T1 construct: Recombinant on transfected CHO cells (CHO-CLDN18.1); also called CLDN18.1
Procedure: (§1) The specific cellular binding affinity of anti-Claudin18.2 antibodies was tested on CHO-CLDN18.2 (transfected CHO cell expressing recombinant human CLDN18.2) and CHO-CLDN18.1 (transfected CHO cell expressing recombinant human CLDN18.1) cells. The cells were plated in complete media containing F12 with 10% FBS, then incubated overnight at 37° C., anti-Claudin18.2 antibodies were serial diluted and added to the assay plates, incubated at 4° C. for 2 hours, followed by fixing cells and further staining the cells for 30 minutes with Alexa Fluor® 488 Goat Anti-Human IgG (H+L) secondary antibody, invitrogen Cat #A-11013 for detection. The binding was assessed by imaging the cells and quantifying the fluorescence intensity using a Biotek Cytation.

T1 sequence (P56856 whole entry, canonical isoform): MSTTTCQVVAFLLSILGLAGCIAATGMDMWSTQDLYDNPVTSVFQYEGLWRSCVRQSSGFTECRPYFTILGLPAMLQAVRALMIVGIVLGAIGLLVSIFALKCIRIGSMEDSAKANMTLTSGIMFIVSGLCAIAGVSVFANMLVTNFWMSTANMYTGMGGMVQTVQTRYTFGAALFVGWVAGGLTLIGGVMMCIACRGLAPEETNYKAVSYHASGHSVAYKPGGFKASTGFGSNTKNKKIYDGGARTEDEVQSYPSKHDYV

Binder	binding result
B12	no binding (tested: 133.4 nM)

molecular target: T1, human claudin 18 isoform 1 (claudin …); test: imaging, CHO-CLDN18.1 cells, single concentration (FIG. 3A)
Procedure: as §1

Binder	binding result
B10	no binding (tested: 10 µg/ml)
B11	no binding (tested: 10 µg/ml)

molecular target: T2, human claudin 18 isoform 2 (claudin 18.2) (human); test: immunofluorescence imaging, CHO-CLDN18.2 cells, serial dilution
T2 construct: Recombinant on transfected CHO cells (CHO-CLDN18.2) or endogenous on tumor cell lines PATU8988S, NUGC-4, KATOIII; the cell line is named under assay; also called CLDN18.2
Procedure: as §1

Binder	EC50 [nM]
B1	1
B7	3
B8	3.3
B9	0.8
B10	1.1
B2	1.5
B3	1.5
B11	0.8
B4	1.5
B5	1.1
B6	1.2
B12	6.2

molecular target: T2, human claudin 18 isoform 2 (claudin …); test: immunofluorescence imaging, CHO-CLDN18.2 cells (FIG. 3B); Table 5 prints 3.0
Procedure: as §1

Binder	EC50 [nM]
B7	2.8

molecular target: T2, human claudin 18 isoform 2 (claudin …); test: immunofluorescence imaging, CHO-CLDN18.2 cells (FIG. 3C); Table 5 prints 0.8
Procedure: as §1

Binder	EC50 [nM]
B9	0.75

molecular target: T2, human claudin 18 isoform 2 (claudin …); test: imaging, PATU8988S cells (endogenous CLDN18.2); ++++ = EC50 less than 2 nM

Binder	EC50 [nM]
B9	< 2
B11	< 2

molecular target: T2, human claudin 18 isoform 2 (claudin …); test: as above; remark: another data set of the same source
Procedure: (§2) Tumor cells were plated in complete media containing RPMI1640 with +10% FBS, then incubated overnight at 37° C., Claudin18.2 antibodies were serial diluted and added to the assay plates, incubated at 4° C. for 2 hours, followed by fixing cells and further staining the cells for 30 minutes with Alexa Fluor® 488 Goat Anti-Human IgG (H+L) secondary antibody (invitrogen Cat #A-11013) for detection. The binding was assessed by imaging the cells and quantifying the fluorescence intensity using a Biotek Cytation.

Binder	EC50 [nM]
B1	< 2
B4	< 2
B5	< 2
B6	< 2

molecular target: T2, human claudin 18 isoform 2 (claudin …); test: imaging, PATU8988S cells (endogenous CLDN18.2); +++ = EC50 between 2 nM and 20 nM
Procedure: as §2

Binder	EC50 [nM]
B2	2 to 20
B3	2 to 20

molecular target: T2, human claudin 18 isoform 2 (claudin …); test: imaging, PATU8988S cells (endogenous CLDN18.2); ++ = EC50 between 20 nM and 100 nM

Binder	EC50 [nM]
B7	20 to 100
B8	20 to 100
B10	20 to 100

molecular target: T1, human claudin 18 isoform 1 (claudin …); test: immunofluorescence imaging on CHO cells expressing human CLDN18.1, antibody at 10 µg/ml
Procedure: as §1

Binder	binding result
B1	no binding (tested: 10 µg/ml)
B7	no binding (tested: 10 µg/ml)
B8	no binding (tested: 10 µg/ml)
B9	no binding (tested: 10 µg/ml)
B2	no binding (tested: 10 µg/ml)
B4	no binding (tested: 10 µg/ml)
B5	no binding (tested: 10 µg/ml)
B6	no binding (tested: 10 µg/ml)
